In a protein production outcome set (Wang et al. 2014) one finds protein production data, which are given here for 14 sequences.

A short description of this data set: label from the status in PepcDB records.
“MLIQDLSHKNIKDYTSIYGEEYINRIVEKAEKLRDITLTHVNSTSLGGGVAEILYSLVPLMNSIGITTRWEVIKGGNEFFNVTKKIHNALQGAEIDLSDEEKRIYLENNKWNVENELVLDSTHIVVHDPQPLPIRKFAENNKKWIWRCHIDLSTPYKPVWLFISQLLRGYEASIFHLKEYIHPETPTPIKYVMPPSIDPLSDKNKELSWSTIEKILNRYGIDPEKPILLQVARFDPWKDPFAAIDVYRLVKKEFPDTQLLLVTSMATDDPEGWIYYEKTLKYAGMDEDIFILTNLKNVGTLEVNAFQRAATVVLQMSRREGFGLAVTEALWKRKPVVARPRGGIKLQVIDGVTGHLAETVEEAAKKTIYLIKNPQKRKELGENGYKHVLKHFTIVRHIENYLDLLAKIV”: the protein production entry is reported as “failed”. For “MLISALIVMVITYCLIISRSITKIPPWASMFFGGILMVILGIISPEEALQSINLDVILFLITLFTFASALEVSGFLKFLAYKIIEKFKEPRKVLFYILLYSGLLSNLVTNDGVSASWTPVILELSRMIGVSEVPFLYALAVGVTIGSVIMPTGNPQNLLIALESGIKNPFITFTIYLTLPSIISLIIAYFILFRLFRKSLSLPSGINIKKEEEEKVDFDRRLGYLTLTLLVVTIILFFSLSFFKIDILLGSLVTSSILLLLTEKRRDIVRRMDWPTILFFIGLFIFTDGVLKSGIIQYLSNFLPPPDSVASIMIVSILLSQVLSNVPLVAIYIPIMISHSGITVVDWLALAAGSTIAGNFTILGAASNVIISEASESRGGKGFNFVEFMKYTIPILIPNAIIIYLFLVLFR” the value was “failed”; for “MLISIAFLLVLYLLNYSSFRMLKSFLTLKKISQYAYLWFFILLSIGEAAFVFYRNIMPSHLFVLTSACSFVSFIIFILSLSFYGFSYSIEKIDFLHSRRKSLKNFLKLGFYLALLGYFWRGFYEGLARPKIKETPIYLDKLDKELKIILLTDMHVGSLLQKDFVDYIVEEVNQKEVDMVLIGGDLVDESIEKVKSFLLPLNNLKSTHGTFYVPGNHEYYHGIEPILSFLDTLNLTILGNECVHLGGINLCGVYDYFARKRQNFAPDIDKALKKRNESKPTILLAHQPKQIRSLKESHSVDLVLSGHTHAGQIFPFSLLVKLAQTYLHGLYKHSPTTQIYVSSGAGYWGIPLRFLAPSEIAYLRLLPKNQA”, “failed”; for “MLITSSLLPPSGTWIFNINSLFCSLSIKNALSNLPLMRFCNSSTTQHTSTLVISLFIISPENIIFFFRIFYYCDNMEREEFLKYLRQGKYDKLAKLINSYSDILSFLDELFTSNKKDDVRRALLVLKRLDNEVIERYLYYILLNLNEKRIIAKEAEEILKKITNKESVEEAILEIAKKPLDEKIVYLFLQNMKEGNIFFRAILEHTKSKNMEESIKILLKNYNSEMILKILANKLYSSEKDERELTINILLNIVDSLTDEQKNILRGHLSVSLLGDEDKKLYRKFKQLFEKLDIPAELSDEQIKSLLKSHGKTTLNIILRENIKLPANFYNREFLKDFLYTGDEEKQFVGVKLISLKKDSKKKVDLLFRFLNYGYGKAKTAAIRELKKIAQNNNELKKYIENKTLMYAKKMNLGLKISSLRILKEFAKKEHLEFLINEHKRLKELVYKLEEEKFMGGFRHLLMMEEEIRKCNVAMRLIEEIVAEICLKNDIHYNDLKISEKLGYEFYRTMELIGVKNLNLIDIHEFLEDVKRDGELITYLSGIVINNNKIDDNLAKKILEVTEKAEMEDKDVLNANKIMIYASLNRVDKIGEIINMAEGYYSKLAFINGVKKFIDEKLLDEEKINLLIPKIAEMIYSTKKLRLMALEFFKNYPNELVLPILINEIGNYRGEDKLMIDVISNVIFKYPNNIHSIRELLNTDKRNSALKILLKVSEKRPELLEDFIYLLAGMYSSANEEDKKLIKKILKNITTEEQKLILKPIIGDL”, “failed”. Consider “MLITVYCVRRDLTEVTFSLQVNPDFELSNFRVLCELESGVPAEEAQIVYMEQLLTDDHCSLGSYGLKDGDMVVLLQKDNVGLRTPGRTP”, for which the protein production entry is on record as “not failed”.

As for “MLKALKKIFGKADGTQPQSGSSPVPQGPAGATAKGTAPTGEKPTEKRPRKPRPPRADNESGAPRAAEKAEKAEKPAKPAGKEGRDAKPRTDKPRRERKPKPVDNWKLEDFVVEPQEGKTRFHDFNLAPSLMHAIHDLGFPYCTPIQAQVLGFTLRGQDAIGRAQTGTGKTAAFLISIITQLLQTPPPKERYMGEPRALIIAPTRELVVQIAKDAAALTKYTGLNVMTFVGGMDFDKQLKQLEARFCDILVATPGRLLDFNQRGEVHLDMVEVMVLDEADRMLDMGFIPQVRQIIRQTPHKGERQTLLFSATFTDDVMNLAKQWTVDPAIVEIEPENVASDTVEQHVYAVAGSDKYKLLYNLVAQNNWERVMVFANRKDEVRRIEERLTKDGISAAQMSGDVPQHKRIRTLEGFREGKIRVLVATDVAGRGIHIDGISHVINFTLPEDPDDYVHRIGRTGRAGASGTSISFAGEDDAFALPPIEELLGRKITCEMPPAELLKPVPRKH”, the protein production result was “failed”.

On to “MLKANVFCAGPVEALILDWAGTTIDFGSLAPVYAFMELFKQEGIEVTQAEAREPMGTEKSEHIRRMLGNSRIANAWLSIKGQASNEEDIKRLYDLFAPIQTRIVAQRSQLIPGWKEVFDKLIAQGIKVGGNTGYGPGMMAPALIAAKEQGYTPASTVFATDVVRGRPFPDMALKVALELEVGHVNGCIKVDDTLPGIEEGLRAGMWTVGVSCSGNEVGLDREDWQALSSDEQQSYRQHAEQRLFNAGAHYVIDSVADLETVITDVNRRLARGEKP”, for which the protein production entry is recorded as “not failed”.

For the sequence “MLKERILSAIAMIIAVLAGIFLLSPLPFTLILAAVITAAIWEWAQFAGFKRSLSRAIITFVTICLFILLIFANTHYIRAGRFLTDQTIPLLFISCCWWLIAFGLVISYPKSASLWSKSITAKFIFGFCTLIPFFIAILALRFNNYAFNQFQGAYLLLYVCLLVWCADSGAYFFGRAFGKRKLAAKVSPSKSWEGALGGLITSCVMALLFIKLTPNNIFGREFETLPFIIVSVATVAVSSLGDLAESMFKRQANIKDSSNLIPGHGGILDRIDSLTAAIPFFATLFFFVL”, the protein production result is “failed”. For “MLKFLKNWTLPIAMLVGAVGYPVFISFSFLTPILIFTMLLLTFCKVSPRDLKPKPLHLWLLLIQIFGSLIVYLLLYRFNKIVAEGAMVCVICPTATAAAVITSKLGGSAASLTTYTLIANIGAAIAVPILFPLIEANPGISFIDAFLVILSKVFPLLICPFLAAWFLQRFIPKVHKVLLGYHELAFYLWGISLAIVTAQTLYSLINDPADGLTEIMIAVVALIACCLQFFLGKTLGSIYNDRISGGQALGQKNTILAIWMAHTYLNPLSAVGPGSYVLWQNIINSWQLWKKRKKESEKCSNNVSG”, the protein production entry is given as “failed”.

As to “MLKFLSVRVEDHIAVATLNHAPANAMSSQVMHDVTELIDQVEKDDNIRVVVIHGEGRFFSAGADIKEFTSVTEAKQATELAQLGQVTFERVEKCSKPVIAAIHGAALGGGLEFAMSCHMRFATESAKLGLPELTLGLIPGFAGTQRLPRYVGKAKACEMMLTSTPITGAEALKWGLVNGVFAEETFLDDTLKVAKQIAGKSPATARAVLELLQTTKSSHYYEGVQREAQIFGEVFTSEDGREGVAAFLEKRKPSFSGR”, the protein production entry is “not failed”.

Turning to “MLKFRSHTKELLDGDAIPEKDLFQNLKELDTINKLLGGYKISLSAIDELIKNAAAYKLVDIGCGGGDTLKYMYHWAKRTDKNLSLVGIDIKPVCIEYAKTNTADLPIQYICDDYKQAFNHIEKIDFIHACLFCHHLSEEQLVELIQFALINKTTLVVNDLERNPIAYYSIKWLTAIFSHSYLVKNDAPLSVARGFKKKEWEALLKKAGAATYSVKNKWAFRHQVIVYGNQ”, the protein production entry is on record as “failed”. For “MLKHCGEFHIALKHLQLALLYTYPSTFSELQVKFQIAHLYEVQNKHKAAKDGYEFLLNEKNISLELKADVYRQLGWMYHCVECLGEKKEREANALNFLQKSIEADPKSGQSLYLLGRCYAGINKVHDAFLAYRNSVEKSEGNADTWCSIGVLYQQQNQPTDALQAYICAVQLDKDHKAAWTNLGILYESCGQLRDAYACYLNATKQISFQKSSLIRKKQAIRMKKDTIGLSKGLSQRITFLEGQLSQAPLPSITSKRRQLCSIEEAWNLPISLEMNSRQQQTAQMLPRQVTKQSPVQGPPPPYPHSQLSQSPIPSKRIKEDGTSQQEVTQNNSQTSAQNLINISESLNQRNFNAMPESNKSSEQSVLDTFDDISNDIYKQNESIKLERLSQDALSNNEDSRHDFIGGDNADISTTFKIQMDSKQLMVAVKLLPIDEPPVHCTILQVNAPPPSPPDCPPQKLTRDQLLPPTPSVHLENKKHAFSPQLQEFCLKHPIAVVRGLAGVLKLDLGLFSTKTLVEANPDHSVEVRTQVHQSPDENWDTSQGKRVWACISHRSHTTIAKYAQYQASSFQDSLKLILPQDESDKGFPGSQAMSDSDSKDSVSNSNIVLKRKKHKINSKMLRFGTNVDLSDEKKWKPQLTELQKLPAFARVISAANMLSHVGHVILGMNTVQLYMKVPGSRTPGHQENNNFCSININIGPGDCEWFAVPDAYWGGVHNLCEKNNISYLHGSWWPVLEDLYKENIPVYRFIQKPGDLVWVNAGCVHWVQSIGWCNNIAWNVGPLTARQYSLAIERYEWNKVQAFKSIVPMVHLSWNLARNIKVSDTKLFELIKMCLLQTLKNVLHIQEYVKSKGVEIRFNGRGKNEASHYCGQCEVEVFNVLFIKEQEKRHVVHCLSCALKLSPSLQGIVCLEEYRLSELQRVYDSFTLHRTQGLAYTQ”, the protein production result is reported as “failed”. Consider “MLKIRCQACSTILEASYKISYNAQDMKYKNLPVYEQKDRILEMLEHNQVIVVESPTGSGKTTQLPVILHEAGYSRSGMIGVTQPRRIAALSVSEFISKQLKEPMPGLVGYKMRFEDKTSNDTKIKIMTDGILLQELKLDPWLSKYSVILVDEAHERSLNIDFILGLLKRIITERKDFKVIISSATINTDLFSMYFDGCPVIKIDAITYPVTLIFDPPAVKASTDTQEAETALMDKIASIVGRILSEGRSGAILVFLPGERAIKDCIERLSKEPWYRKLFILPLYGRLSKEEQERVFKSPPFGKKKIVISTNIAETSITINDIAAVIDSGLAKLNFYNPFTFTSSLDETLISRASCNQRRGRAGRTQEGVCYRLYTRKDFETRQLYTLEEIYRTDLSEVVMRMAELGILDFENFDFISPPGKKGIIGAIDTLNMLDALESDRSLSSIGKMMCLFPLAPRQSRIIVEAITRYPDLVEEVLIAAAFLSARSPVIFPEGEEIEARKAHALFDEPLGDFASFLKVFRMYSQALDKERFCKIHYLDDRVMAEIANIKEQLELIVSDMGVPILSGGKMEHYLTAIAKGMIQFVCSAQGRDSYRSLTTEKIFIHPGSCMYKEKEQFIVAGEIVRTSRMYAMSVSPLSKKIIEEVAPALLERKDKRAKKEKDEHRADQKEEKKKPEEESVLIEGTRYLIKKIKGKKHLILPWKEFKLTAEAVFKKYSEENQNGALEQLKGLRGKIEINKSELLSGEKMDLILNVVNNFNIEQIEKTEDEKHFDRNKNYFIEEDLEALVNSLNLLFRTTIAKKTTKQLGFITLFCDGTGHFWFKTSRGFHTALHESLVSLQSLIDLAGENFNEDQKIIVRTIYGKMNKMI”, for which the protein production entry is given as “failed”.

“MLKKEYLKNPYLVLFAMIVLAYVFSVFCRFYWVWWASEFNEYFFNNQLMIISNDGYAFAEGARDMIAGFHQPNDLSYYGSSLSTLTYWLYKITPFSFESIILYMSTFLSSLVVIPIILLANEYKRPLMGFVAALLASVANSYYNRTMSGYYDTDMLVIVLPMFILFFMVRMILKKDFFSLIALPLFIGIYLWWYPSSYTLNVALIGLFLIYTLIFHRKEKIFYIAVILSSLTLSNIAWFYQSAIIVILFALFALEQKRLNFMIIGILGSATLIFLILSGGVDPILYQLKFYIFRSDESANLTQGFMYFNVNQTIQEVENVDFSEFMRRISGSEIVFLFSLFGFVWLLRKHKSMIMALPILVLGFLALKGGLRFTIYSVPVMALGFGFLLSEFKAILVKKYSQLTSNVCIVFATILTLAPVFIHIYNYKAPTVFSQNEASLLNQLKNIANREDYVVTWWDYGYPVRYYSDVKTLVDGGKHLGKDNFFPSFSLSKDEQAAANMARLSVEYTEKSFYAPQNDILKSDILQAMMKDYNQSNVDLFLASLSKPDFKIDTPKTRDIYLYMPARMSLIFSTVASFSFINLDTGVLDKPFTFSTAYPLDVKNGEIYLSNGVVLSDDFRSFKIGDNVVSVNSIVEINSIKQGEYKITPIDDKAQFYIFYLKDSAIPYAQFILMDKTMFNSAYVQMFFLGNYDKNLFDLVINSRDAKVFKLKI”: the protein production result is “failed”.
